In patent publication US6541002:

T1: Vpr protein of HIV-1, P12520
T1 chain: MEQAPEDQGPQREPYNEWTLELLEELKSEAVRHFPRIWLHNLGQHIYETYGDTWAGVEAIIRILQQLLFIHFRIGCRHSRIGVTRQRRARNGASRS

B1: dWF-CAT chimeric protein (protein)
chain: MQPWWAFFGGGSSWWSFSMGPTRMEKKITGYTTVDISQWHRKEHFEAFQSVAQCTYNQTVQLDITAFLKTVKKNKHKFYPAFIHILARLMNAHPEFRMAMKDGELVIWDSVHPCYTVFHEQTETFSSLWSEYHDDFRQFLHIYSQDVACYGENLAYFPKGFIENMFFVSANPWVSFTSFDLNVANMDNFFAPVFTMGKYYTQGDKVLMPLAIQVHHAVCDGFHVGRMLNELQQYCDEWQGGA
B2: chloramphenicol acetyltransferase (CAT) (protein)
chain: MEKKITGYTTVDISQWHRKEHFEAFQSVAQCTYNQTVQLDITAFLKTVKKNKHKFYPAFIHILARLMNAHPEFRMAMKDGELVIWDSVHPCYTVFHEQTETFSSLWSEYHDDFRQFLHIYSQDVACYGENLAYFPKGFIENMFFVSANPWVSFTSFDLNVANMDNFFAPVFTMGKYYTQGDKVLMPLAIQVHHAVCDGFHVGRMLNELQQYCDEWQGGA
B3: dWF-IN fusion protein (protein)
chain: MQPWWAFFGGGSSWWSFSMGPTRFLDGIDKAQEEHEKYHSNWRAMASDFNLPPVVAKEIVASCDKCQLKGEAMHGQVDCSPGIWQLDCTHLEGKVILVAVHVASGYIEAEVIPAETGQETAYFLLKLAGRWPVKTVHTDNGSNFTSTTVKAACWWAGIKQEFGIPYNPQSQGVIESMNKELKKIIGQVRDQAEHLKTAVQMAVFIHNFKRKGGIGGYSAGERIVDIIATDIQTKELQKQITKIQNFRVYYRDSRDPVWKGPAKLLWKGEGAVVIQDNSDIKVVPRRKAKIIRDYGKQMAGDDCVASRQDED
B4: dWF-PR-IN fusion protein (protein)
chain: B3 chain

Molecular target: T1, Vpr protein of HIV-1, P12520

Protein | CAT activity of virions (conversion of chloramphenicol to an acetylated product) | presence of the fusion protein in progeny virions (Western blotting)
B1 | virions which were generated by WT/WF-CAT cells exhibited significantly higher CAT activity (28% conversion of chloramphenicol to an acetylated product) than virions which were generated by Vpr^-/WF-CAT cells (8% conversion) | –
B2 | CAT activity exhibited by virions which were generated by Vpr^-/WF-CAT cells was comparable to CAT activity exhibited by virions which were generated by WT/CAT cells (each 8% conversion | –
B3 | – | the presence of dWF-fusion proteins in progeny virions was dependent on expression of Vpr in cells in which the progeny virions were produced
B4 | – | the presence of dWF-fusion proteins in progeny virions was dependent on expression of Vpr in cells in which the progeny virions were produced
